Measured values: paper PMC5095173, “Disulfide-activated protein kinase G Iα regulates cardiac diastolic relaxation and fine-tunes the Frank–Starling response” (Nature Communications, 2016)
Where no end group is shown, it is not given here.

B1: oxidized (WT) protein kinase G Iα, Cys42 disulfide dimer (enzyme, human, UniProt Q13976 1-671, looked up)
chain: MSELEEDFAKILMLKEERIKELEKRLSEKEEEIQELKRKLHKCQSVLPVPSTHIGPRTTRAQGISAEPQTYRSFHDLRQAFRKFTKSERSKDLIKEAILDNDFMKNLELSQIQEIVDCMYPVEYGKDSCIIKEGDVGSLVYVMEDGKVEVTKEGVKLCTMGPGKVFGELAILYNCTRTATVKTLVNVKLWAIDRQCFQTIMMRTGLIKHTEYMEFLKSVPTFQSLPEEILSKLADVLEETHYENGEYIIRQGARGDTFFIISKGTVNVTREDSPSEDPVFLRTLGKGDWFGEKALQGEDVRTANVIAAEAVTCLVIDRDSFKHLIGGLDDVSNKAYEDAEAKAKYEAEAAFFANLKLSDFNIIDTLGVGGFGRVELVQLKSEESKTFAMKILKKRHIVDTRQQEHIRSEKQIMQGAHSDFIVRLYRTFKDSKYLYMLMEACLGGELWTILRDRGSFEDSTTRFYTACVVEAFAYLHSKGIIYRDLKPENLILDHRGYAKLVDFGFAKKIGFGKKTWTFCGTPEYVAPEIILNKGHDISADYWSLGILMYELLTGSPPFSGPDPMKTYNIILRGIDMIEFPKKIAKNAANLIKKLCRDNPSERLGNLKNGVKDIQKHKWFEGFNWEGLRKGTLTPPIIPSVASPTDTSNFDSFPEDNDEPPPDDNSGWDIDF
modifications: intermolecular disulfide bond at Cys42 between the two subunits
notes: protein kinase G Iα (cGMP-dependent protein kinase 1, alpha isoform), human, untagged WT construct; also called PKGIα; source: FreeStyle 293-F cells, transfected, purified (8-AEA-cAMP agarose, size exclusion chromatography); incubated with 10 mM lipoic acid to obtain the disulfide dimer

Legend:
[1] = molecular target: B1; experiment: ITC; PLN (1–23) (700 μM) titrated into the cell containing WT disulfide PKGIα or the C42S mutant (70 μM); 25 °C; 50 mM sodium phosphate buffer pH 7.4, 100 mM NaCl; no cyclic nucleotide; conditions: both partners purified
[2] = molecular target: the molecule itself; experiment: cross-linking; intermolecular Cys42 disulfide of purified recombinant PKGIα (lipoic acid or air oxidation) seen as dimer by SDS-PAGE

Binder	Kd [1]	stoichiometry N [1]	stoichiometry N [2]
Ac-MEKVQYLTRSAIRRASTIEMPQQ (peptide, UniProt P26678 1-23, looked up, cardiac phospholamban, human, residues 1-23 (N-terminal cytoplasmic domain); also called PLN_(1–23); PLN (1–23); source: synthetic peptide; bought: PeptideSynthetics (Peptide Protein Research Ltd, UK))	~7 µM	1 PLN peptide per PKGIα disulfide dimer	–
B1	–	–	2
